# Measurements as given in the RNAGym collection of RNA variant scans (doi:10.7554/elife.80360).
# B1: Hammerhead Ribozyme (parent)
# chain: ACCGGAUGUGCUUUCCGGUCUGAUGAGUCCGUGAGGACGAAACAG
# Variants of: B1
# Assay: self-cleavage, relative activity (ratio to wild type); higher = more cleavage; co-transcriptional
row,Variant,self-cleavage
1,U9G C20U,0.468
2,U9G C20G,0.422
3,U9G C20A,0.331
4,G10A G33U,1.01
5,G10A G33A,1.21
6,G10A G33C,0.959
7,G10C G36A,0.586
8,G10C G36C,0.84
9,G10C G36U,0.56
10,U9G U28C,0.673
11,U9G U28A,0.833
12,U9G U28G,0.729
13,G10U A34C,1.13
14,U9G G35C,0.562
15,U9G G35U,0.64
16,U9G G35A,0.707
17,G10C C30G,0.675
18,G10C C30A,0.989
19,G10C C30U,1.28
20,G10C C16A,0.995
21,G10C C16G,0.522
22,G10C C16U,0.964
23,G10C U12A,0.954
24,G10C U12C,1.26

row,Variant,self-cleavage
1,G10C U12G,1.09
2,U9C U28C,1.08
3,U9C U28G,0.808
4,U9C U32C,1.49
5,U9C U32A,0.837
6,U9C U32G,0.9
7,G10C A40U,0.28
8,G10C A40G,0.398
9,G10C A40C,0.457
10,U9G C15G,0.729
11,U9G C15A,0.758
12,U9G C15U,0.842
13,G10A G35C,0.763
14,G10A G35U,0.925
15,G10A G35A,0.853
16,U9G C11G,1.17
17,U9G C11A,1.47
18,U9G C11U,0.342
19,G10A G17C,0.61
20,G10A G17A,0.81
21,G10A G17U,0.986
22,G10A U14C,0.97
23,G10A U14A,1.21
24,G10A U14G,1.04

row,Variant,self-cleavage
1,G10A G39C,0.45
2,G10A G39A,0.373
3,G10A G39U,0.401
4,G10A A42C,0.406
5,G10A A42G,0.288
6,G10A A42U,0.38
7,G10A U19C,0.675
8,G10A U19G,0.464
9,G10A U19A,0.347
10,U9G C16A,0.835
11,U9G C16U,0.848
12,U9G C16G,0.456
13,G10C C11G,1.17
14,G10C C11U,1.18
15,G10C C11A,1.11
16,G10C G35A,0.848
17,G10C G35U,0.818
18,G10C G35C,0.497
19,U9G U24C,0.919
20,U9G U24A,0.928
21,U9G U24G,0.671
22,U9G G17U,0.316
23,U9G G17A,0.456
24,U9G G17C,0.32

row,Variant,self-cleavage
1,G10C U21G,0.414
2,G10C U21C,0.673
3,G10C U21A,0.533
4,G10C G17C,0.614
5,G10C G17A,0.926
6,G10C G17U,0.932
7,U9G G27A,0.449
8,U9G G27U,0.329
9,U9G G27C,0.455
10,U9G A26U,0.344
11,U9G A26G,0.345
12,U9G A26C,0.32
13,G10A U24A,1.12
14,G10A U24G,0.875
15,G10A U24C,0.932
16,G10C G45C,0.783
17,G10C G45A,0.996
18,G10C G45U,0.812
19,U9G A37C,0.805
20,U9G A37G,0.983
21,U9G A37U,0.611
22,G10U,1.07
23,G10A,1.09
24,G10C,1.05

row,Variant,self-cleavage
1,G10A A37U,0.921
2,G10A A37C,1.19
3,G10A A37G,0.639
4,G10A G18C,0.615
5,G10A G18U,1.13
6,G10A G18A,0.943
7,U9G U32A,1.31
8,U9G U32C,1.21
9,U9G U32G,1.07
10,U9G C43G,0.455
11,U9G C43U,0.339
12,U9G C43A,0.271
13,G10A C20A,0.451
14,G10A C20G,0.303
15,G10A C20U,0.543
16,G10A A23C,0.375
17,G10A A23U,0.33
18,G10A A23G,0.34
19,U9G U21C,0.414
20,U9G U21G,0.406
21,U9G U21A,0.405
22,G10A G25U,0.345
23,G10A G25C,0.362
24,G10A G25A,0.365

row,Variant,self-cleavage
1,G10A C29U,1.17
2,G10A C29G,0.853
3,G10A C29A,0.654
4,G10C G31A,1.25
5,G10C G31C,0.704
6,G10C G31U,1.19
7,G10A U32G,0.936
8,G10A U32A,1.14
9,G10A U32C,1.52
10,U9G G22C,0.399
11,U9G G22A,0.321
12,U9G G22U,0.358
13,G10A U28C,1.37
14,G10A U28G,1.15
15,G10A U28A,1.12
16,G10A A34C,1.2
17,G10A A34G,0.836
18,G10A A34U,0.919
19,G10C U14G,0.606
20,G10C U14A,0.796
21,G10C U14C,1.28
22,G10A A44U,0.741
23,G10A A44G,1.71
24,G10A A44C,0.517

row,Variant,self-cleavage
1,G10C U32A,1.09
2,G10C U32C,1.3
3,G10C U32G,0.638
4,G10A C16U,0.971
5,G10A C16A,1.4
6,G10A C16G,0.812
7,G10C A42C,0.34
8,G10C A42G,0.278
9,G10C A42U,0.277
10,U9G G33A,0.988
11,U9G G33U,0.788
12,U9G G33C,0.78
13,G10C G22U,0.335
14,G10C G22A,0.338
15,G10C G22C,0.28
16,G10C G25A,0.368
17,G10C G25C,0.397
18,G10C G25U,0.277
19,G10U A23U,0.421
20,G10U A23G,0.388
21,G10U A23C,0.47
22,U9G G18U,0.4
23,U9G G18A,0.393
